Source: patent US20010010923A1, “MODIFIED CARBOXYPEPTIDASE” (priority 1997, published 2001)
Entries after “also recorded” stand apart in the source; their conditions may differ. Marks after values point to notes of the source that are not given here.

Assays:
[1] = Transpeptidation of FA-Ala-OBzl with H-Leu-NH2, Table 3; assay type: biochemical; settings: FA-Ala-OBzl 0.2 mM, pH 7.5; for fa: H-Leu-NH2; for KN(app): nucleophile H-Leu-NH2 concentration at which fa is half of maximum
Procedure: (§1) Transamidation reactions were carried out generally as described in PCT Application WO 95/20039. In general, the method included dissolving the nucleophile (H-Leu-NH2, unless otherwise indicated) in 50 mM HEPES, 5 mM EDTA and adjusting the pH to 7.5, 5 μl of peptide substrate (8 mM Bz-G-A-R-A-R-A-OH, unless otherwise indicated, in methanol) was added to 190 μl nucleophile solution followed by 5 μl enzyme, resulting in a substrate concentration of 0.2 mM.
(§2) During the reaction, 20 μl aliquots were removed from the reaction mixture and added to 50 μl 1% trifluoroacetic acid to quench the reaction. The reactant composition was determined by HPLC using a Waters HPLC equipped with a C-18 Waters Novapac 4μ reverse phase column and various gradients of acetonitrile in 0.1% trifluoroacetic acid. The separation was monitored at 254 nm allowing the direct quantification of the products from the integrated peak areas. The composition of the reaction mixture was determined at least twvice during the reaction, the first when 20-50% (preferably 35%) of the substrate had been consumed in the reaction and the second time when 50-90% (preferably 80%) of the peptide substrate had been consumed.
(§3) The fraction of aminolysis (fa) was expressed as the ratio between the formed aminolysis product and the sum of all products formed. Unconsumed substrate was disregarded in the calculations.
Site specific mutagenesis was performed as described in Example 1 to produce the specific substitution mutants described below. Transamidation reactions were performed as described for Example 1.
In table 3, below, KN(app) represents the nucleophile concentration at which fa is half of the maximum value (a measure for the dissociation constant of the nucleophile). famax is the highest possible fa obtained at saturation of the enzyme with the nucleophile.
KN(app) indicates the concentration at which famax/2 is reached and thus describes the apparent binding constant of the nucleophile. Because the competing hydrolysis reaction is thought to occur while the leaving group remains attached to the to the acyl-enzyme intermediate, a low KN(app) is preferred.

[2] = Transpeptidation of FA-Ala-Xaa-OH with H-Gly-NH2, Table 2; assay type: biochemical; settings: for Fraction of aminolysis (fa), P1' Ala: FA-Ala-Ala-OH 0.2 mM; for Fraction of aminolysis (fa), P1' Ala / Fraction of aminolysis (fa), P1' Leu / Fraction of aminolysis (fa), P1' Met / Fraction of aminolysis (fa), P1' Phe / Fraction of aminolysis (fa), P1' Val: 1.9 M H-Gly-NH2, pH 7.5, room temperature; for Fraction of aminolysis (fa), P1' Leu: FA-Ala-Leu-OH 0.2 mM; for Fraction of aminolysis (fa), P1' Met: FA-Ala-Met-OH 0.2 mM; for Fraction of aminolysis (fa), P1' Phe: FA-Ala-Phe-OH 0.2 mM; for Fraction of aminolysis (fa), P1' Val: FA-Ala-Val-OH 0.2 mM; for fraction of aminolysis compared to wild type, in words: larger, hydrophobic leaving group such as leucine
Procedure: as §1, §2, §3
Site specific mutagenesis was performed as described for Example 1 to produce the S1 mutants used below.
Transamidation reactions were performed as described for Example 1.

Row | Molecule | fa [1] | Fraction of aminolysis (fa), P1' Ala [2] | Fraction of aminolysis (fa), P1' Leu [2] | Fraction of aminolysis (fa), P1' Met [2] | Fraction of aminolysis (fa), P1' Phe [2] | Fraction of aminolysis (fa), P1' Val [2] | fraction of aminolysis compared to wild type, in words [2] | KN(app) [1] | fraction of aminolysis compared to wild type, in words ([2]; listed as M3981)
1 | T60Y: carboxypeptidase Y S1' mutant, substitution T60Y (protein, UniProt P00729 112-532, looked up, variant T60Y) Carboxypeptidase Y: KIKDPKILGIDPNVTQYTGYLDVEDEDKHFFFWTFESRNDPAKDPVILWLNGGPGCSSLYGLFFELGPSSIGPDLKPIGNPYSWNSNATVIFLDQPVNVGFSYSGSSGVSNTVAAGKDVYNFLELFFDQFPEYVNKGQDFHIAGESYAGHYIPVFASEILSHKDRNFNLTSVLIGNGLTDPLTQYNYYEPMACGEGGEPSVLPSEECSAMEDSLERCLGLIESCYDSQSVWSCVPATIYCNNAQLAPYQRTGRNVYDIRKDCEGGNLCYPTLQDIDDYLNQDYVKEAVGAEVDHYESCNFDINRNFLFAGDWMKPYHTAVTDLLNQDLPILVYAGDKDFICNWLGNKAWTDVLPWKYDEEFASQKVRNWTASITDEVAGEVKSYKHFTYLRVFNGGHMVPFDVPENALSMVNEWIHGGFSL | 0.95^a | 0.90 | 0.66 | 0.58 | 0.51 | 0.43 | improvement in fraction of aminolysis obtained; also recorded: most dramatic improvement; also recorded: most effective at increasing the fraction of aminolysis |  | 
2 | M398I: carboxypeptidase Y S1' mutant, substitution M398I (protein, UniProt P00729 112-532, looked up, variant M398I) Carboxypeptidase Y: KIKDPKILGIDPNVTQYTGYLDVEDEDKHFFFWTFESRNDPAKDPVILWLNGGPGCSSLTGLFFELGPSSIGPDLKPIGNPYSWNSNATVIFLDQPVNVGFSYSGSSGVSNTVAAGKDVYNFLELFFDQFPEYVNKGQDFHIAGESYAGHYIPVFASEILSHKDRNFNLTSVLIGNGLTDPLTQYNYYEPMACGEGGEPSVLPSEECSAMEDSLERCLGLIESCYDSQSVWSCVPATIYCNNAQLAPYQRTGRNVYDIRKDCEGGNLCYPTLQDIDDYLNQDYVKEAVGAEVDHYESCNFDINRNFLFAGDWMKPYHTAVTDLLNQDLPILVYAGDKDFICNWLGNKAWTDVLPWKYDEEFASQKVRNWTASITDEVAGEVKSYKHFTYLRVFNGGHIVPFDVPENALSMVNEWIHGGFSL | 0.94^a | 0.93 | 0.91 | 0.83 | 0.75 | 0.87 | improvement in fraction of aminolysis obtained; also recorded: most dramatic improvement | 0.91^b mM | enhanced transpeptidation
3 | T60D: carboxypeptidase Y S1' mutant, substitution T60D (protein, UniProt P00729 112-532, looked up, variant T60D) Carboxypeptidase Y: KIKDPKILGIDPNVTQYTGYLDVEDEDKHFFFWTFESRNDPAKDPVILWLNGGPGCSSLDGLFFELGPSSIGPDLKPIGNPYSWNSNATVIFLDQPVNVGFSYSGSSGVSNTVAAGKDVYNFLELFFDQFPEYVNKGQDFHIAGESYAGHYIPVFASEILSHKDRNFNLTSVLIGNGLTDPLTQYNYYEPMACGEGGEPSVLPSEECSAMEDSLERCLGLIESCYDSQSVWSCVPATIYCNNAQLAPYQRTGRNVYDIRKDCEGGNLCYPTLQDIDDYLNQDYVKEAVGAEVDHYESCNFDINRNFLFAGDWMKPYHTAVTDLLNQDLPILVYAGDKDFICNWLGNKAWTDVLPWKYDEEFASQKVRNWTASITDEVAGEVKSYKHFTYLRVFNGGHMVPFDVPENALSMVNEWIHGGFSL | 0.94^a | 0.87 | 0.25 | 0.15 | 0.15 | 0.53 | improvement in fraction of aminolysis obtained | 1.5^c mM | 
4 | M398G: carboxypeptidase Y S1' mutant, substitution M398G (protein, UniProt P00729 112-532, looked up, variant M398G) Carboxypeptidase Y: KIKDPKILGIDPNVTQYTGYLDVEDEDKHFFFWTFESRNDPAKDPVILWLNGGPGCSSLTGLFFELGPSSIGPDLKPIGNPYSWNSNATVIFLDQPVNVGFSYSGSSGVSNTVAAGKDVYNFLELFFDQFPEYVNKGQDFHIAGESYAGHYIPVFASEILSHKDRNFNLTSVLIGNGLTDPLTQYNYYEPMACGEGGEPSVLPSEECSAMEDSLERCLGLIESCYDSQSVWSCVPATIYCNNAQLAPYQRTGRNVYDIRKDCEGGNLCYPTLQDIDDYLNQDYVKEAVGAEVDHYESCNFDINRNFLFAGDWMKPYHTAVTDLLNQDLPILVYAGDKDFICNWLGNKAWTDVLPWKYDEEFASQKVRNWTASITDEVAGEVKSYKHFTYLRVFNGGHGVPFDVPENALSMVNEWIHGGFSL | 0.95^a | 0.93 | 0.59 | 0.83 | 0.66 | 0.42 | improvement in fraction of aminolysis obtained | 1.6^a mM | 
5 | M398V: carboxypeptidase Y S1' mutant, substitution M398V (protein, UniProt P00729 112-532, looked up, variant M398V) Carboxypeptidase Y: KIKDPKILGIDPNVTQYTGYLDVEDEDKHFFFWTFESRNDPAKDPVILWLNGGPGCSSLTGLFFELGPSSIGPDLKPIGNPYSWNSNATVIFLDQPVNVGFSYSGSSGVSNTVAAGKDVYNFLELFFDQFPEYVNKGQDFHIAGESYAGHYIPVFASEILSHKDRNFNLTSVLIGNGLTDPLTQYNYYEPMACGEGGEPSVLPSEECSAMEDSLERCLGLIESCYDSQSVWSCVPATIYCNNAQLAPYQRTGRNVYDIRKDCEGGNLCYPTLQDIDDYLNQDYVKEAVGAEVDHYESCNFDINRNFLFAGDWMKPYHTAVTDLLNQDLPILVYAGDKDFICNWLGNKAWTDVLPWKYDEEFASQKVRNWTASITDEVAGEVKSYKHFTYLRVFNGGHVVPFDVPENALSMVNEWIHGGFSL | 0.87^a | 0.93 | 0.91 | 0.83 | 0.86 | 0.81 | improvement in fraction of aminolysis obtained; also recorded: most dramatic improvement; also recorded: enhanced transpeptidation | 1.43^b mM | 
6 | M398A: carboxypeptidase Y S1' mutant, substitution M398A (protein, UniProt P00729 112-532, looked up, variant M398A) Carboxypeptidase Y: KIKDPKILGIDPNVTQYTGYLDVEDEDKHFFFWTFESRNDPAKDPVILWLNGGPGCSSLTGLFFELGPSSIGPDLKPIGNPYSWNSNATVIFLDQPVNVGFSYSGSSGVSNTVAAGKDVYNFLELFFDQFPEYVNKGQDFHIAGESYAGHYIPVFASEILSHKDRNFNLTSVLIGNGLTDPLTQYNYYEPMACGEGGEPSVLPSEECSAMEDSLERCLGLIESCYDSQSVWSCVPATIYCNNAQLAPYQRTGRNVYDIRKDCEGGNLCYPTLQDIDDYLNQDYVKEAVGAEVDHYESCNFDINRNFLFAGDWMKPYHTAVTDLLNQDLPILVYAGDKDFICNWLGNKAWTDVLPWKYDEEFASQKVRNWTASITDEVAGEVKSYKHFTYLRVFNGGHAVPFDVPENALSMVNEWIHGGFSL | 0.93^a | 0.93 | 0.84 | 0.89 | 0.84 | 0.65 | improvement in fraction of aminolysis obtained; also recorded: enhanced transpeptidation | 0.83^a mM | 
